B1: IL4-IL10 fusion protein (other)
chain: HKCDITLQEIIKTLNSLTEQKTLCTELTVTDIFAASKNTTEKETFCRAATVLRQFYSHHEKDTRCLGATAQQFHRHKQLIRFLKRLDRNLWGLAGLNSCPVKEANQSTLENFLERLKTIMREKYSKCSSGSGGGGSGTSPGQGTQSENSCTHFPGNLPNMLRDLRDAFSRVKTFFQMKDQLDNLLLKESLLEDFKGYLGCQALSEMIQFYLEEVMPQAENQDPDIKAHVNSLGENLKTLRLRLRRCHRFLPCENKSKAVEQVKNAFNKLQEKGIYKAMSEFDIFINYIEAYMTMKIRN
modifications: glycosylated (two glycoforms on the blot, one band after PNGaseF); made with co-transfected sialyltransferase to cap the glycans with sialic acid; sites not stated
notes: On the Western blot it was reduced and denatured; also called IL4-10 fusion protein; IL4-IL10 protein
B2: recombinant human IL10 (Sigma, Cat #19276) (ligand, UniProt P22301 19-178, looked up)
chain: SPGQGTQSENSCTHFPGNLPNMLRDLRDAFSRVKTFFQMKDQLDNLLLKESLLEDFKGYLGCQALSEMIQFYLEEVMPQAENQDPDIKAHVNSLGENLKTLRLRLRRCHRFLPCENKSKAVEQVKNAFNKLQEKGIYKAMSEFDIFINYIEAYMTMKIRN
notes: also called recombinant IL10; wild-type IL10

Molecular target: the molecule itself
Assay: HP-SEC, self-association
Method: To determine the molecular weight of the IL4-IL10 fusion protein, a High Performance Size Exclusion Chromatography (HP-SEC) assay was performed. The gel filtration (BioSuite 125 4 μm UHR SEC Column; Waters; Cat #186002161) was performed on a High-Performance Liquid Chromatography System (Shimadzu) with 50 mM phosphate buffer containing 0.5 M NaCl as mobile phase. The column was calibrated prior to the run using a protein mix of thyroglobulin, bovine serum albumen, carbonic anhydrase, myoglobulin, and ribonuclease. The IL4-IL10 fusion protein purified by cation exchange was obtained by pooling and concentrating the chromatography fractions with the highest IL4-IL10 fusion protein content (2 ml of pooled fractions was concentrated to 100 μl, containing 2 μg of IL4-IL10 fusion protein). Fifty μl of 20 μg/ml of pooled IL4-IL10 fusion protein was injected and ran trough the column at a flow rate of 0.35 ml/min and under a pressure of 35 bar. Fractions of 175 μl were collected and the IL4 and IL10 content was measured in the above described IL4 and IL10 ELISA (1/500 dilution). Similar runs with recombinant human IL4 (Sigma, Cat #14269) and recombinant human IL10 (Sigma, Cat #19276) were performed to compare the molecular size of the IL4-IL10 fusion protein with that of the wild-type cytokines.

Protein	binding result
B1	binds
B2	binds
